Data published in publication PMC12286842.

Target: Flag–UBR4 (UBR4 tagged at its endogenous locus) (human (endogenous in HEK293T)) (UniProt Q5T4S7)
Test: cryo-EM structure; endogenous SIFI immunoprecipitated through tagged UBR4 from HEK293T and run on Superose 6 SEC; the complex formed in cells and was co-purified; single-particle cryo-EM, AF2 models fitted in low-resolution regions

Flag–UBR4 (UBR4 tagged at its endogenous locus), Q5T4S7-1 1-5183 (enzyme), sequence (Q5T4S7 whole entry): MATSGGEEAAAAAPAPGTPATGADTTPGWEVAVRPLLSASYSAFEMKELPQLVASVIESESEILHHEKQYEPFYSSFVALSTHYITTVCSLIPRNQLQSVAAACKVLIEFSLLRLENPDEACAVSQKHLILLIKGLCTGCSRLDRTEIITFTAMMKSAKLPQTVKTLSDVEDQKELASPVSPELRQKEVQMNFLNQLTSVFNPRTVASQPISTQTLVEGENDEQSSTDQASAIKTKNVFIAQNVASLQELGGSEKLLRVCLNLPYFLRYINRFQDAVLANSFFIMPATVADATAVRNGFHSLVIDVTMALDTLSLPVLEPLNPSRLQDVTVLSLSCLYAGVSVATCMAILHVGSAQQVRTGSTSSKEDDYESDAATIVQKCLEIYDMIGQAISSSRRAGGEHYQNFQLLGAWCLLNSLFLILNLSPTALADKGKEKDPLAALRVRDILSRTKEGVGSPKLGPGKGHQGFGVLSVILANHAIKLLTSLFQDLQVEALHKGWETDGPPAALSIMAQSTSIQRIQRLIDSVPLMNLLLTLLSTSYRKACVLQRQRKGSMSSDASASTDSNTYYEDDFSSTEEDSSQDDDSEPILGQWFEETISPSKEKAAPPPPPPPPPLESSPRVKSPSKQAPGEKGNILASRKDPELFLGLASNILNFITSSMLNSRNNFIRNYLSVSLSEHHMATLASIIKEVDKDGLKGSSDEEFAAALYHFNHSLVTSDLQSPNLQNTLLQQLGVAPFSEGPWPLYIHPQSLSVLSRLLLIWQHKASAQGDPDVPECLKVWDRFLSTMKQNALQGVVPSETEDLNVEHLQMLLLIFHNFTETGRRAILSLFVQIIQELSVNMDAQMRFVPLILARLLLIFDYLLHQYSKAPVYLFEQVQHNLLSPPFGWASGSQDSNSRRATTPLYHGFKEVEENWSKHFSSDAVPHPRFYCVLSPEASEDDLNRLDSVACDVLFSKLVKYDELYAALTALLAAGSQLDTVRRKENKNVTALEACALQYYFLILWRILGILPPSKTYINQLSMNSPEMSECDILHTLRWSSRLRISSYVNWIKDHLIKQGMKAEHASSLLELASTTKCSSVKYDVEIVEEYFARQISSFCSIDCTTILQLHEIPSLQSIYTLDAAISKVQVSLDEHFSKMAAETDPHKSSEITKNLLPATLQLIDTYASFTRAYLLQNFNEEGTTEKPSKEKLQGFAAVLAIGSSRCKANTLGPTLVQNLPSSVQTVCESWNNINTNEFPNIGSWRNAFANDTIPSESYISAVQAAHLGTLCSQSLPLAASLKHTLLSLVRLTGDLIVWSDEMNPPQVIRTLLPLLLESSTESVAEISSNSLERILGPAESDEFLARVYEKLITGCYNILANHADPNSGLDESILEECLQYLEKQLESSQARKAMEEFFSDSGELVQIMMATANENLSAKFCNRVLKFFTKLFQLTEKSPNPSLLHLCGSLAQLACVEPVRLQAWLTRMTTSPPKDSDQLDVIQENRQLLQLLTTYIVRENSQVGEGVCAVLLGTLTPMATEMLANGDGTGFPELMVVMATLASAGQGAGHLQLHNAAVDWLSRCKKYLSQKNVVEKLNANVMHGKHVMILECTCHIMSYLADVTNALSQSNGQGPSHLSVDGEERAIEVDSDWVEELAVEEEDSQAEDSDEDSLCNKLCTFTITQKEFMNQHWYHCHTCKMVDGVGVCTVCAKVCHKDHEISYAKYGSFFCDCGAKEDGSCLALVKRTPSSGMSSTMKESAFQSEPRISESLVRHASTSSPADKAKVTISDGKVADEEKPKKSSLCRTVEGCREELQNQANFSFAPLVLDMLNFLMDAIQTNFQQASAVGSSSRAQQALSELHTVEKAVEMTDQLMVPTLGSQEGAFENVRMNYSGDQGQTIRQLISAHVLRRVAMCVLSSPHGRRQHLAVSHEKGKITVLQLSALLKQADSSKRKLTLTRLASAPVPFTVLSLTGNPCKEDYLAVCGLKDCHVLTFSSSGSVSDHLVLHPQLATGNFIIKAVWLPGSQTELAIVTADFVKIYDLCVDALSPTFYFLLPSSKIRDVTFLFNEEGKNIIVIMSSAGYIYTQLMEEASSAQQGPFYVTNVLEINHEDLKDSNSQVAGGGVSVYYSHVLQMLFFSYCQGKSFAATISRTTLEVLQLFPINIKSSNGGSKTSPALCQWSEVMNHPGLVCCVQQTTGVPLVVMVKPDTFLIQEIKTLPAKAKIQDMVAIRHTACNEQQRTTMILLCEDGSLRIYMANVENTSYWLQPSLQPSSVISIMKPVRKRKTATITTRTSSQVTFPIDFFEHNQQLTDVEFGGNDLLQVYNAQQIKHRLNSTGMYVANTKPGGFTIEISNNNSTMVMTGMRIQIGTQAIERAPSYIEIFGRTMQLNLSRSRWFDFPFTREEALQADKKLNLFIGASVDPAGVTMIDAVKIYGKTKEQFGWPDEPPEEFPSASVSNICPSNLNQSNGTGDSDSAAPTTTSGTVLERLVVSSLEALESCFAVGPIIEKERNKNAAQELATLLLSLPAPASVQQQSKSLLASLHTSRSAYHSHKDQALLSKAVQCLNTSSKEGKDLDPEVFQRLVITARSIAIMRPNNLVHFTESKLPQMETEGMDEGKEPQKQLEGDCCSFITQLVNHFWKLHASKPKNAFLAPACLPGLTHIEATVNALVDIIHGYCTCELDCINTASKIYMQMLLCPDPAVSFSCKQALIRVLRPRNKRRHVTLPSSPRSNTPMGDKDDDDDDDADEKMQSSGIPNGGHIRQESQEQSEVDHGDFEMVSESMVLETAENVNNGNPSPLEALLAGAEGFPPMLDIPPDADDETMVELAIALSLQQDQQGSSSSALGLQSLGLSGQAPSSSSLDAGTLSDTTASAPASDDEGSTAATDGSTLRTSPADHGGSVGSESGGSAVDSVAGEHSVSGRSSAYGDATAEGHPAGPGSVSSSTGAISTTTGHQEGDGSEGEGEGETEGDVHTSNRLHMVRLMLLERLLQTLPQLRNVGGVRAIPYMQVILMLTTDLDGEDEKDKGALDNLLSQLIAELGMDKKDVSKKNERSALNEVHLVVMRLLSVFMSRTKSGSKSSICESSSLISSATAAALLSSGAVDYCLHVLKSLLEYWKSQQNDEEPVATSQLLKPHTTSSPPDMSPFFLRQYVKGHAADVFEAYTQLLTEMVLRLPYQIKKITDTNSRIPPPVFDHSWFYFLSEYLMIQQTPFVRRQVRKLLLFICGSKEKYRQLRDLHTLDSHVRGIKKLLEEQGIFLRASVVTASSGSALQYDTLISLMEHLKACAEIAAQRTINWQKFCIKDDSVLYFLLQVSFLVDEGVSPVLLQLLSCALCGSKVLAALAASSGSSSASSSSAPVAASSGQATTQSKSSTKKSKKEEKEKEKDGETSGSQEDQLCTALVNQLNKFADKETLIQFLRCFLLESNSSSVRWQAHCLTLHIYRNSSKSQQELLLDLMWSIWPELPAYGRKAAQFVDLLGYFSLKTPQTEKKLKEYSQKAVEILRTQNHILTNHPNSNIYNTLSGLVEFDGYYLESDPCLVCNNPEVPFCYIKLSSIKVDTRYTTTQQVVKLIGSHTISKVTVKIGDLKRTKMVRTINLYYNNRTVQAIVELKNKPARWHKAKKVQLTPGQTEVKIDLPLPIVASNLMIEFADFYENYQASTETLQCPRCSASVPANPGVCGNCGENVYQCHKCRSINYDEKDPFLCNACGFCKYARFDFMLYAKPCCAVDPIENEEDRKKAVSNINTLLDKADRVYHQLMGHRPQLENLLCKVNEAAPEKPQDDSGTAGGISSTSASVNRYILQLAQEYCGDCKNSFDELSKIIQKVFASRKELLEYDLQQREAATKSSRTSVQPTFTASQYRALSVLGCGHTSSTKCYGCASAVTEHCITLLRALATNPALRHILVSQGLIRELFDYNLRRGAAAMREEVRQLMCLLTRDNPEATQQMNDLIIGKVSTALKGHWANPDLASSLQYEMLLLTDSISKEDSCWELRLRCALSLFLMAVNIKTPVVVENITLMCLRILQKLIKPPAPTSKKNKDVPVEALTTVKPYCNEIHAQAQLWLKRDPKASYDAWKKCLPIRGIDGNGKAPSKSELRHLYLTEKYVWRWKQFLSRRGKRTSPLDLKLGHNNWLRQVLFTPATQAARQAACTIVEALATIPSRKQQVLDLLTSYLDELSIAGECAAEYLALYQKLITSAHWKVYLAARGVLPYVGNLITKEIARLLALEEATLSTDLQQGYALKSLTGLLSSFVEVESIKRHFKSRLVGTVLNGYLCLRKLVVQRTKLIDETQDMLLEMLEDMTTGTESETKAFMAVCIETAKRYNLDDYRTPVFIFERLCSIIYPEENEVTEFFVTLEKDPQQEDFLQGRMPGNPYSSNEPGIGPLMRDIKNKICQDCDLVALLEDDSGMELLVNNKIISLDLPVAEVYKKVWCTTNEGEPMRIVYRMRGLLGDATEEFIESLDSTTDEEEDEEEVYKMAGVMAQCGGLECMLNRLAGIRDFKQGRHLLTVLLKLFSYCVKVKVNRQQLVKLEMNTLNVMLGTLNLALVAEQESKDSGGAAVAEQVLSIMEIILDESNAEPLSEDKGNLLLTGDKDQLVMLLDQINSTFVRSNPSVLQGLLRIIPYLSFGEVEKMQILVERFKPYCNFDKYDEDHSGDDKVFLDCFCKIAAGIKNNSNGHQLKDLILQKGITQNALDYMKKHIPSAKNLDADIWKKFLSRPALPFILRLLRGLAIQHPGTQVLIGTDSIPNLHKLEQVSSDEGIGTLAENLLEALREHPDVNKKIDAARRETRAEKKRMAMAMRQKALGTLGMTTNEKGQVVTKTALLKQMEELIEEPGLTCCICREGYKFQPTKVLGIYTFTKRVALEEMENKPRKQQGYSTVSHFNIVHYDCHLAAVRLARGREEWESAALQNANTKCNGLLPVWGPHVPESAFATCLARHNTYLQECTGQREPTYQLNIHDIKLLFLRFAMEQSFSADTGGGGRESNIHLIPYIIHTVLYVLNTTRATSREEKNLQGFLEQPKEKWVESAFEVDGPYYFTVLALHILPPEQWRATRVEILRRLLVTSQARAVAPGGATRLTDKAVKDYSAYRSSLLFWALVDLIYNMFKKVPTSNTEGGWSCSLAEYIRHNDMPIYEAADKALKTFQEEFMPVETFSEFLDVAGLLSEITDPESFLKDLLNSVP

Work on “Flag–UBR4 (UBR4 tagged at its endogenous locus), Q5T4S7-1 1-5183 (enzyme)” yielded a stoichiometry N of 2.
